Data on one molecule can be found in article PMC4027212.

The data set addresses FANCI (human, UniProt Q9NVI1 1-1328). Put plainly: EMSA. (In general: Mobility shift assays separate free from complexed probe on a gel.)

Sequence of FANCI (Q9NVI1 whole entry): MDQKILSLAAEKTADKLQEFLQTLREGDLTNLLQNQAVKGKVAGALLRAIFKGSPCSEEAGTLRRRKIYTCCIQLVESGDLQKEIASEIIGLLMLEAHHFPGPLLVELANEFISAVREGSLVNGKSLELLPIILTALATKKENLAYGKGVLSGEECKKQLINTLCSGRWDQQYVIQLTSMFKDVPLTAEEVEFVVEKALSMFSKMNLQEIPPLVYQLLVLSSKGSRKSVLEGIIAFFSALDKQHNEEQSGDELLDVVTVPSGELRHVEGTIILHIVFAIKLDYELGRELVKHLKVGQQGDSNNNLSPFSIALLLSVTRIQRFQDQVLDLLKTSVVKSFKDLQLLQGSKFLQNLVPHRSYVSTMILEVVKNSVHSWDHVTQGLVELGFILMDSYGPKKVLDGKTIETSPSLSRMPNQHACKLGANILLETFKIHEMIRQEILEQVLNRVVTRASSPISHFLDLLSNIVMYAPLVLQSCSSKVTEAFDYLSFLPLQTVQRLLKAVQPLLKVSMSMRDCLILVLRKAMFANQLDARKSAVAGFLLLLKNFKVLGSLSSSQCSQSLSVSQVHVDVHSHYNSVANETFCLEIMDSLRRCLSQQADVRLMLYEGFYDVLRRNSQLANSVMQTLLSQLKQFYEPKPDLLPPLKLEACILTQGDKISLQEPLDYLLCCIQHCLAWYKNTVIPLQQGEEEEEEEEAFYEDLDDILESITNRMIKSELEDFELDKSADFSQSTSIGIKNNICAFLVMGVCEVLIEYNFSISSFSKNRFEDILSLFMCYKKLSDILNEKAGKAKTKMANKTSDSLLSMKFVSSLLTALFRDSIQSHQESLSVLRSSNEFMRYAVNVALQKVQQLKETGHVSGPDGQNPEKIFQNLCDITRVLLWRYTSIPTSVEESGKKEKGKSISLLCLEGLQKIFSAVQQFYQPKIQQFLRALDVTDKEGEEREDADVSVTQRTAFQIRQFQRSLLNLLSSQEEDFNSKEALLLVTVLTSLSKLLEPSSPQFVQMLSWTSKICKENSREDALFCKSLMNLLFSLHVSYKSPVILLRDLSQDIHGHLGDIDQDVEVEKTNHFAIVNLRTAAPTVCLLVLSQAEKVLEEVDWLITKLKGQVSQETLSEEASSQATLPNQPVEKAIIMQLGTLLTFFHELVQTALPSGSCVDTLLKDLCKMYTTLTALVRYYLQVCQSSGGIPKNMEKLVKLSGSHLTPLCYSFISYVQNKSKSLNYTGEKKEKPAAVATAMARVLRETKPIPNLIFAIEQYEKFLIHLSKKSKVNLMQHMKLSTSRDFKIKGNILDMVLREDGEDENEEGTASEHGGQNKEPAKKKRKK

B1: Splayed arm (O2+O9) (structured_DNA)
DNA 1: AAAAAAAAAAAAAAAAAAAAAAAAAAAAAAAAAAAAAAAAGTAGAGTCGACGGTGCTGGGATCCAACATGTTTTCAATCTG
DNA 2: CAGATTGAAAACATGTTGGATCCCAGCACCGTCGACTCTACAAAAAAAAAAAAAAAAAAAAAAAAAAAAAAAAAAAAAAAA
Consider B1, for which the binding result is “binds”.
